Laboratory results from US20230304019, “DNA APTAMER, PHARMACEUTICAL COMPOSITION COMPRISING SAME, METHOD FOR INHIBITING CATALYTIC ABILITY OF TXNDC5, AND METHOD FOR PREVENTING OR TREATING ORGAN FIBROSIS” (CHI-HUA FUNDATION, published 2023).

B1: Aptamer-7 (ssDNA)
DNA: AGCAGCACAGAGGTCAGGAACCTTATGCCTATGTAGCGTGCTACCGTGAA
B2: Aptamer-11 (ssDNA)
DNA: AGCAGCACAGAGGTCTCTTATTACTCTCCCGTACCGCGTGCTACCGTGAA
B3: Aptamer-3 (ssDNA)
DNA: AGCAGCACAGAGGTCAATGTAATCTTTATCTATCGGCGTGCTACCGTGAA

Key:
[1] = molecular target: T1, TXNDC5 (wild type) (Homo sapiens, UniProt Q8NBS9 Q8NBS9:33-432); experiment: magnetic nanoparticle (MARAS) pulldown with q-PCR, nonlinear regression; conditions: tags: Ni-column purified, baculovirus/insect cells, Sino Biological; double stem-loop (predicted)
T1 sequence (Q8NBS9 33-432, one chain of several): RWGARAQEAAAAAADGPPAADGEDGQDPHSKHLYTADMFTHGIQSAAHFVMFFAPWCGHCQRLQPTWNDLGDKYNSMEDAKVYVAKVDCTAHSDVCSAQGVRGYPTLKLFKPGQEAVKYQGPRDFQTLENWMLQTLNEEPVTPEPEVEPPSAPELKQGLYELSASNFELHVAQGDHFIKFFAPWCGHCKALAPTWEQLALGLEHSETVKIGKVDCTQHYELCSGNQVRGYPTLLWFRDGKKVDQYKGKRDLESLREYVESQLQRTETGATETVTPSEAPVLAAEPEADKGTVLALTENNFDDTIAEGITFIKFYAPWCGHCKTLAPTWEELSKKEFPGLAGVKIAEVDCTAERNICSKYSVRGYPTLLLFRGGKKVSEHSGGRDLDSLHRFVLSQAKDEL
Protocol: (§1) For further determining the binding efficiency of TXNDC5-targeting aptamers, the Kd values, as the indicator of aptamer and target molecule interaction, of aptamer-3 and aptamer-7 are measured by q-PCR, and the results were fitted with nonlinear regression. The method of measuring the Kd values of aptamer-3 and aptamer-7 is illustrated as following.
(§2) Aptamer-3 and aptamer-7 are isolated and progressively diluted in series from 100 to 3.125 nM, aptamer-3 and aptamer-7 are folded in the binding buffer as the procedures mentioned above. Equal amounts of either mouse-MNPs or humane-MNPs are mixed with aptamer-3 and aptamer-7 and followed the MARAS and q-PCR procedure as described above to specifically bind to aptamer-3 and aptamer-7. The Kd values of aptamer-3 and aptamer-7 are measured by fitting the results of each Ct value from q-PCR and the concentrations in a nonlinear regression through PRISM 8 (Graphpad). Each result is performed in duplicate to reduce the errors.

[2] = molecular target: T1, TXNDC5 (wild type); experiment: inhibition; insulin reduction turbidity assay, 0.5 mM DTT, potassium phosphate, EDTA, pH 7; conditions: tags: Ni-column purified, baculovirus/insect cells, Sino Biological
Protocol: An insulin/assay buffer is prepared by adding 1.6 mM insulin (which is prepared by dissolving insulin in 0.1 N HCl) with the assay buffer consisted of 100 mM potassium phosphate and 0.2 mM EDTA (pH 7). The volume of each insulin/assay buffer is 15 μl, wherein the volume of insulin is 6 μl and the volume of assay buffer is 9 μl.
Each of the above mixtures of aptamers (Ap-3, Ap7 and Ap-11) with different concentrations and human wild type TXNDC5 is added with a corresponding insulin/assay buffer separately. That is, aptamer-3, aptamer-7 and aptamer-11 have seven experimental group samples (with different concentrations, 7.8125 μM, 15.625 μM, 31.25 μm, 62.5 μM, 125 μM, 250 μM and 500 μM) separately. An insulin/assay buffer which is not added with the above mixture of aptamers and human wild type TXNDC5 is prepared as the control group sample.

[3] = molecular target: T2, TXNDC5 (Mus musculus, UniProt Q91W90 Q91W90:34-417); experiment: q-PCR of eluted aptamer; specific and strong binding to mouse TXNDC5; conditions: tags: Ni-column purified, baculovirus/insect cells, Sino Biological; single stem-loop (predicted)
T2 sequence (Q91W90 34-417, one chain of several): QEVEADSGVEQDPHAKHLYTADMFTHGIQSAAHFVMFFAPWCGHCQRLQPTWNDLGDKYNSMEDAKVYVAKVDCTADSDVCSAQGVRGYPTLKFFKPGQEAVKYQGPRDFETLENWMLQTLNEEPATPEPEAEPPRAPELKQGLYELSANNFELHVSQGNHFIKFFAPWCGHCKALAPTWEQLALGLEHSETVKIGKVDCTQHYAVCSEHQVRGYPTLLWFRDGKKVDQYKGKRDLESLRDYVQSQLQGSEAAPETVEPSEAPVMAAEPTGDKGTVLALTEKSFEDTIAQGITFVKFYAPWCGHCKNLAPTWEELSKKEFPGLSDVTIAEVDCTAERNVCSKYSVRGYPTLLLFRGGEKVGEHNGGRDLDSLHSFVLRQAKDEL
Protocol: The 100 nM of aptamer-3, aptamer-7 and aptamer-11 are folded in the binding buffer via the procedures as mentioned above. 20 nM of Aptamer-3, aptamer-7 and aptamer-11 are taken individually and hybridized with positive-(mouse and human TXNDC5, 5 μl) and negative-(serum and catalytic-death TXNDC5, 5 μl) MNPs, and the hybridized aptamers-MNPs are processed according to the above MARAS procedures. Aptamer-3, aptamer-7 and aptamer-11 bound with MNPs are collected and eluted by heating to 95° C. for 5 min in 100 μl ddH₂O.
The amounts of aptamer-3, aptamer-7 and aptamer-11 are detected by q-PCR and the relative expression levels are utilized as outcomes. The process of detecting the amounts of aptamer-3, aptamer-7 and aptamer-11 by q-PCR is set forth as following. To measure the relative expression of aptamer-3, aptamer-7 and aptamer-11, the q-PCR is performed in 96-well plates with BioRad CFX Connect system. The fivefold-diluted eluted aptamer-3, aptamer-7 and aptamer-11 are individually dissolved in test tubes filled with 100 μl of RNase-free water. […]

[4] = molecular target: T2, TXNDC5; experiment: magnetic nanoparticle (MARAS) pulldown with q-PCR, nonlinear regression; conditions: tags: Ni-column purified, baculovirus/insect cells, Sino Biological; double stem-loop (predicted)
Protocol: as §1, §2

| Binder | Kd [1] [µM] | IC50 ([2]; double stem-loop (predicted)) [µM] | binding result [3] | IC50 ([2]; single stem-loop (predicted)) [µM] | Kd [4] [µM] |
| --- | --- | --- | --- | --- | --- |
| B1 | 0.0169 | 241 |  |  |  |
| B2 |  |  | binds | 263 |  |
| B3 |  | 214 |  |  | 0.0075 |
